B1: AnkB C-terminal ankyrin domain (residues 54-168) (domain or fragment)
chain: HIKRELWGNLMVAARSNNLEEVKKILKKGIDPTQTNSYHLNRTPLLAAIEGKAYQTANYLWRKYTFDPNFKDNYGDSPISLLKKQLANPAFKDKEKKQIRALIRGMQEEKIAQSK

Tests used:
[1] = biological target: B1; test: NMR titration
crystal structure = biological target: the molecule itself; test: crystal structure

## QEEKI [QEEKI pentapeptide derived from the AnkB C-terminus]
[1]
  Kd: > 8 mM

## B1
Crystal structure
  binding result: binds
